Measurements as given in patent US20210187071A1, “COMPOSITIONS COMPRISING MDA-7/IL-24 PROTEIN AND METHODS OF USE” (VIRGINIA COMMONWEALTH UNIVERSITY, priority 2017, published 2021).
Entries after “also recorded” stand apart in the source; their conditions may differ.

What was measured:
[1] = tested on: p27, GRP78, and Beclin-1; assay: Western blotting of downstream MDA-7/IL-24 signaling molecules in PC3-ML cells; type: cell-based; conditions: western blot, vs untreated control
Excerpt: Western Blotting: Standard protocols were followed for Western blotting assays (24, 27). The primary antibodies used were pAkt, Akt, pGSK3β, GSK3β, NFATc1, cyclin D1 (Cell Signaling Technology, Danvers, Mass., USA) and EF1α (Abeam, Cambridge, United Kingdom). Appropriate secondary antibodies were purchased from Sigma-Aldrich, Inc. St. Louis, Mo., USA).
After purification, the quality of the purified protein was confirmed using anti-MDA-7 antibody by western blotting (FIG. 1B). To confirm biological activity, PC3-ML cells were treated with MDA-7/IL-24 protein, and anti-proliferative and potential molecular changes were evaluated by MTT assays and western blotting analyses, respectively (FIGS. 1C and 1D). […] Next, to evaluate the long-term effect of MDA-7/IL-24 on cell proliferation, colony formation (clonal) assays were performed in an assortment of PC cell lines.

[2] = tested on: PC cells; assay: Colony formation (clonal) assay in PC cell lines; type: cell-based; conditions: 200 cells plated, colonies counted 2 weeks after treatment
Method: MTT Cell Proliferation and Clonal Assays: Cell proliferation assays were done as described previously (25). Briefly, 2,000 cells were seeded in each well of a 96-well plate and allowed to attach overnight. Cells were treated with complete media in the presence or absence of different concentrations of MDA-7/IL-24 protein. At appropriate time points, cells were further incubated with MTT (3-(4, 5-di methyl thiazol-2-yl)-2, 5 diphenyl tetrazolium bromide) reagents. Finally, DMSO was applied to dissolve the blue salt and the OD was measured at 560 nm (25). For determining long-term effects, colony formation (cloning) assays were performed as described earlier (26). Briefly, 200 cells were plated and allowed to grow in the presence or absence of MDA-7/IL-24 for an additional 15 days. Culture media was replaced with fresh media containing MDA-7/IL-24 protein once a week, two times in total.

B1: MDA-7/IL-24 protein: Recombinant His-tagged MDA-7/IL-24 protein purified on Ni-NTA from supernatant of IM-PHFA cells infected with Ad.5-His-mda-7 (protein)
chain: QEFHFGPCQVKGVVPQKLWEAFWAVKDTMQAQDNITSARLLQQEVLQNVSDAESCYLVHTLLEFYLKTVFKNYHNRTVEVRTLKSFSTLANNFVLIVSQLQPSQENEMFSIRDSAHRRFLLFRRAFKQLDVEAALTKALGEVDILLTWMQKFYKL
- levels of p27, GRP78, and Beclin-1 [1]: Significant increases; also recorded: up-regulation of expression
- proliferation of PC cells (colony formation) [2]: significantly reduced the proliferation of PC cells
